Results published in paper PMC3023227 (2010).
Where no end group is shown, it is not given here. [ ]: non-standard residue; d: D form. pY = N[C@@H](Cc1ccc(OP(=O)(O)O)cc1)C(=O)O

B1: AE1 C-terminal domain (AE1C-WT) 876-911 (peptide)
chain: LIFRNVELQCLDADDAKATFDEEEGRDEYDEVAMPV
B2: AE1 C-terminal peptide AE1C-pY904 (peptide)
chain: CLDADDAKATFDEEEGRDE[pY]DEVAMPV
B3: AE1 C-terminal peptide AE1C-Y904 (peptide)
chain: CLDADDAKATFDEEEGRDEYDEVAMPV

Target: GAPDH (Oryctolagus cuniculus, UniProt P46406)
Assay: fluorescence titration

Sequence of GAPDH (P46406 whole entry): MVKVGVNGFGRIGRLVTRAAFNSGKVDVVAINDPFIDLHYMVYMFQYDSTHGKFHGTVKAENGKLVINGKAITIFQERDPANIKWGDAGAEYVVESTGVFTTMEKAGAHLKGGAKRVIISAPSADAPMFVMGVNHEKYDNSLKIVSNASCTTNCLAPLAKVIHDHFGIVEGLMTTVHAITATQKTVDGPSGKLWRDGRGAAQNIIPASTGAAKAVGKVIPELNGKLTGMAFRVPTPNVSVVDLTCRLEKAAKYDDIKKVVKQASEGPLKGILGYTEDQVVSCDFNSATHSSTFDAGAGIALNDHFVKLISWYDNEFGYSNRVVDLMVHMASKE

Binder	Kd
B1	2300 nM
B2	2600 nM
B3	3200 nM
